Like-named read-outs stand apart in the source and are kept apart here. Where a SMILES comes first, the peptide text is derived from it. Bridges are numbered along the chain shown (N, C = ends). [ ]: non-standard residue; d: D form. The star is where a group is joined. AMBHA = 6-(4-(aminomethyl)benzamido)hexanoic acid linker, NCc1ccc(C(=O)NCCCCCC(=O)*)cc1; DOTA = O=C(O)CN1CCN(CC(=O)O)CCN(CC(=O)*)CCN(CC(=O)O)CC1; NOTA = O=C(O)CN1CCN(CC(=O)O)CCN(CC(=O)*)CC1; 2Nal = N[C@@H](Cc1ccc2ccccc2c1)C(=O)O; Fmoc = O=C(OCC1c2ccccc2-c2ccccc21)*; Pen = CC(C)(S)[C@H](N)C(=O)O; 4Amb = NCc1ccc(C(=O)O)cc1; Ahx = NCCCCCC(=O)O

We go through seven molecules from patent US20230099200A1, “RADIOLABELED PEPTIDES FOR NON-INVASIVE DIAGNOSIS AND TREATMENT OF CXCR4 EXPRESSING TUMORS” (ISTITUTO NAZIONALE TUMORI IRCCS - FONDAZIONE G. PASCALE, priority 2019, published 2023).

For data set [1], the target named is T1, CXCR4 (Homo sapiens, UniProt P61073). Briefly: competitive binding with [^125I]CXCL12 as radioligand on CXCR4-expressing CCRF-CEM cells. Details: using CXCR4-expressing CCRF-CEM cells, human T lymphoblastic leukemia cells CXCR4 expressing; endogenous in cells; host or cells: CCRF-CEM (human T-cell leukemia), whole cells. To be noted: [^125I]CXCL12 radioligand, means ±SD, read-out: hCXCR4 binding affinity IC50. As to the method: Specifically, according to the present invention, DOTA and NOTA-AMBHA-R54 were synthesized by combining solid and solution-phase peptide synthesis. Binding affinities (IC50) were determined using CXCR4-expressing CCRF-CEM cells, human T lymphoblastic leukemia cells CXCR4 expressing, with [^125I]CXCL12 as radioligand. Chinese hamster ovary (CHO) and CHO cells transduced with human CXCR4 (CHO-hCXCR4) grown in complete medium supplemented with 1 mg/mL G418 (a kind gift of Dr. David McDermott (NIAID, NIH, Bethesda, Md.).
Binding affinities to hCXCR4 were assessed with CCRF-CEM cells (1·10^6 cells/sample) in binding buffer (PBS containing 50 mM HEPES, 1 mM CaCl2, 5 mM MgCl2, 0.5% BSA, and 0.3 mM NaN3) and [^125I]CXCL12 (Perkin-Elmer, 2200 Ci/mmol) as radioligand. Cells were incubated with 100.000 cpm of the respective radioligand (approx. 0.1 nM) plus increasing concentrations (10^−11 to 10^−5 M) of the respective peptide of interest (n=3 per concentration, total sample volume 250 μL). After incubation at 4° C. for 60 min (CCRF-CEM cells) at room temperature (RT), samples were centrifuged (5 min, 450 g, Megafuge 1.0, Heraeus Thermo Scientific), the supernatant was carefully removed and pooled with the supernatants of two subsequently performed washing steps. […]

The target of data set [2] is T1, CXCR4. To be noted: competitive binding assay using anti-CXCR4 mAb 12G5; read-out: CXCR4 affinity IC50; cited from earlier work.
The test system of another data set is CHO-hCXCR4 xenografts. The data set is described as follows: in vivo. To be noted: mouse; for tumor accumulation upon co-injection of unlabeled competitor (R54): 8 mg/kg. Details: species or system mice. From the text:
(§1) Female athymic nude mice (6 weeks old from Envigo Laboratories, Indianapolis, Ind., USA) were subcutaneously (s.c.) injected with 10^7 CHO (right flank) and CHO-hCXCR4 (left flank) or CHO-hCXCR4 cells alone (right flank). Once tumors became palpable (100=^3 [volume=0.5×long diameter×(short diameter)^2]), approximately 15-21 days post injection (p.i.), the animals were used for the experiments. Tumor-bearing CHO/CHO-hCXCR4 mice were i.v. injected with 10-15 MBq of the respective radiotracer in 100 μL of PBS. At 45 min p.i., mice were anaesthetized with Avertin and images were acquired using a Discovery 600 PET/TC scanner (GE healthcare) in 3D mode with measured attenuation correction (1 bed position, 6 min scanning time). Data were decay-corrected to the time of tracer injection. The reconstructed images including PET, CT and fused PET/TC images, were generated on the advantage workstation version (AW4.6 software, GE healthcare). Tissue activity (e.g. tumor, lung, liver, kidney) was quantified considering the volume of a region of interest (ROI) to determine maximum standardized uptake values (SUVmax). Non-specific tracer accumulation was investigated by co-injection of 8 mg/kg unlabeled peptide […]. CHO and CHO-hCXCR4 tumors were microscopically analyzed (H&E) and CXCR4 expression was evaluated through immunohistochemistry (IHC) (mab172, clone 44716, diluition 1:[…]&D system). The percentage of positive cells was evaluated in at least 5 areas (HPF 200× magnification) (Zeiss AxioScope light microscope). Statistical analysis was performed using the MedCalc 9.3.7.0 and Excel software. Unpaired Student t test was used for statistical analysis of ex vivo biodistribution and PET/TC images. The Spearman's correlation was used to measure the degree of association between SUV(max) and % CXCR4 IHC staining.

The nature of a further data set: in vivo. Further details: species or system mice. To be noted: female, athymic nude, mouse, iv, total radioactivity.
Source text: as §1

The next data set relates to CHO-hCXCR4 tumor. Details: species or system mice. To be noted: mouse, in vivo. As to the method:
Female athymic nude mice (6 weeks old from Envigo Laboratories, Indianapolis, Ind., USA) were subcutaneously (s.c.) injected with 10^7 CHO (right flank) and CHO-hCXCR4 (left flank) or CHO-hCXCR4 cells alone (right flank). Once tumors became palpable (100=^3 [volume=0.5×long diameter×(short diameter)^2]), approximately 15-21 days post injection (p.i.), the animals were used for the experiments. 10-15 MBq of the respective ^68Ga-labeled peptide in 100 μL of PBS were injected into the tail vein of nude mice bearing CHO-hCXCR4 tumor (groups of n=3-5). For competition studies, 8 mg/kg of unlabeled […], were co-injected with the radioligands. At 45 min p.i., blood was collected from the retro-orbital plexus (100 μl) and mice were sacrificed and the tissues and organs of interest were dissected, weighed, and counted for radioactivity in a γ-counter. Biodistribution data are given as percent injected dose per gram tissue, % ID/g (means±SD). The biodistribution of [^68Ga]DOTA-AMBHA-R54 and [^68Ga]NOTA-AMBHA-R54 was investigated in CHO-hCXCR4 bearing […] mice (45 min p.i.). […] Data are given in % ID/g and are means±SD.

The target of data set [3] is T2, human CXCR4 (chemokine receptor 4) on CCRF-CEM cells (human, UniProt P61073 1-352).
T2 construct: whole, on cells; also called hCXCR4
Briefly: displacement of [125I]CXCL12 from CXCR4-expressing CCRF-CEM cells, gamma counting. As to the method: Cells were incubated with 100.000 cpm of the respective radioligand (approx. 0.1 nM) plus increasing concentrations (10⁻¹¹ to 10⁻⁵ M) of the respective peptide of interest (n=3 per concentration, total sample volume 250 μL). After incubation at 4° C. for 60 min (CCRF-CEM cells) at room temperature (RT), samples were centrifuged (5 min, 450 g, Megafuge 1.0, Heraeus Thermo Scientific), the supernatant was carefully removed and pooled with the supernatants of two subsequently performed washing steps. Then, the amount of free (pooled supernatants) and bound radioligand (cell pellet) was quantified using a γ-counter and expressed in percent of total added activity. The half maximal inhibitory concentration (IC₅₀) values were calculated using GraphPad Prism software (GraphPad Software, Inc., California).
To assess the influence of modifications and chelator conjugation on R54, the CXCR4 affinity of Fmoc-AMBHA-R54 (see above the structure), NOTA-AMBHA-R54 and DOTA-AMBHA-R54 peptides as well as unmodified R54 were tested in competitive binding with [¹²⁵I]CXCL12 as radioligand on CXCR4-expressing CCRF-CEM cells. Each experiment was performed in triplicate, and results are means ±SD from a minimum of three separate experiments.
Background: Loss of bound radioactivity is the signal in a displacement assay; it reports binding, not function.

T1 sequence (P61073 whole entry): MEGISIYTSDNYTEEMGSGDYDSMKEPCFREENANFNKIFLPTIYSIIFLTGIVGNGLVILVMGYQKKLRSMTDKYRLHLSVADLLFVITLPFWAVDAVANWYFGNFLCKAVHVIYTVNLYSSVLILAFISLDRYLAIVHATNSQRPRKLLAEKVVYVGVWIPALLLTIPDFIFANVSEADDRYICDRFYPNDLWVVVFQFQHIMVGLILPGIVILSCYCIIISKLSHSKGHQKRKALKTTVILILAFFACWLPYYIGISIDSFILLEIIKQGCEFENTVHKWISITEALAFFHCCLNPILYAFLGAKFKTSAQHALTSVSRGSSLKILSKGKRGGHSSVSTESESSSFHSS
T2 sequence (P61073 whole entry): as above

As a reminder, the IC50 is the concentration at which inhibition is half-maximal. Turning to `CC(=O)N[C@@H](CCCNC(=N)N)C(=O)N[C@@H](C)C(=O)N[C@@H]1CSSC(C)(C)[C@@H](C(=O)O)NC(=O)[C@H](Cc2c[nH]cn2)NC(=O)[C@H](Cc2ccc3ccccc3c2)NC(=O)[C@H](CCCNC(=N)N)NC1=O` [Peptide R54, Ac-Arg-Ala-[DCys-Arg-Nal(2′)-His-Pen]COOH] (Ac-RA[dC]R[2Nal]H[Pen]-OH; disulfide 3-7), the IC50 at CXCR4 [1] came out at 20 ± 2 nM.

Consider `CC(=O)N[C@@H](CCCNC(=N)N)C(=O)N[C@@H](C)C(=O)N[C@@H]1CSSC(C)(C)[C@@H](C(=O)O)NC(=O)[C@H](Cc2cnc[nH]2)NC(=O)[C@H](Cc2ccc3ccccc3c2)NC(=O)[C@H](CCCNC(=N)N)NC1=O` [Peptide R54, Ac-Arg-Ala-[DCys-Arg-Nal(2′)-His-Pen]COOH] (Ac-RA[dC]R[2Nal]H[Pen]-OH; disulfide 3-7), for which, at CXCR4 [2], the IC50 is 1.5 ± 0.5 nM.

With `C[C@H](NC(=O)[C@H](CCCNC(=N)N)NC(=O)CCCCCNC(=O)c1ccc(CNC(=O)CN2CCN(CC(=O)O)CCN(CC(=O)O)CCN(CC(=O)O)CC2)cc1)C(=O)N[C@@H]1CSSC(C)(C)[C@@H](C(=O)O)NC(=O)[C@H](Cc2c[nH]cn2)NC(=O)[C@H](Cc2ccc3ccccc3c2)NC(=O)[C@H](CCCNC(=N)N)NC1=O` [[^68Ga]DOTA-AMBHA-R54, metal not drawn] ({DOTA-4Amb-Ahx}-RA[dC]R[2Nal]H[Pen]-OH; disulfide 3-7), in the data set on CHO-hCXCR4 xenografts, the “maximum standardized uptake value (SUVmax)” value was determined as 2.02 ± 0.14 g/mL and the “tumor accumulation upon co-injection of unlabeled competitor (R54)” value is “reduced to background levels”. The SUV at 0.75 h in “in vivo” is 2.02 ± 0.14 SUV. The tumor/non-tumor ratios result in the data set on CHO-hCXCR4 tumor is “high tumor/non-tumor ratios”.

Take `C[C@H](NC(=O)[C@H](CCCNC(=N)N)NC(=O)CCCCCNC(=O)c1ccc(CNC(=O)CN2CCN(CC(=O)O)CCN(CC(=O)O)CC2)cc1)C(=O)N[C@@H]1CSSC(C)(C)[C@@H](C(=O)O)NC(=O)[C@H](Cc2c[nH]cn2)NC(=O)[C@H](Cc2ccc3ccccc3c2)NC(=O)[C@H](CCCNC(=N)N)NC1=O` [[^68Ga]NOTA-AMBHA-R54, metal not drawn] ({NOTA-4Amb-Ahx}-RA[dC]R[2Nal]H[Pen]-OH; disulfide 3-7): in the data set with CHO-hCXCR4 xenografts, the “maximum standardized uptake value (SUVmax)” value was 19.6 ± 2.00 g/mL and the “tumor accumulation upon co-injection of unlabeled competitor (R54)” value was “reduced to background levels”. The SUV at 0.75 h in the data set “in vivo” was 19.6 ± 2 SUV. Also, in the data set on CHO-hCXCR4 tumor, the excretion route entry was “exclusive renal excretion” and the tumor/non-tumor ratios result is reported as “high tumor/non-tumor ratios”.

For the molecule {Fmoc-AMBHA}-RA[dC]R[2Nal]H[Pen]-OH (disulfide 3-7) [Fmoc-AMBHA-R54], in data set [3], the IC50 is 38.5 nM.

{NOTA-AMBHA}-RA[dC]R[2Nal]H[Pen]-OH (disulfide 3-7, also called NOTA-Ahx-R54; NOTA-R54) [NOTA-AMBHA-R54]: in data set [3], the IC50 worked out at 36 nM.

In the case of {DOTA-AMBHA}-RA[dC]R[2Nal]H[Pen]-OH (disulfide 3-7, also called DOTA-Ahx-R54; DOTA-R54) [DOTA-AMBHA-R54], the IC50 in data set [3] worked out at 107 nM.
